Source: paper PMC5050335

Tests used:
[1] = target: T1, Cap0037 (Clostridium acetobutylicum ATCC 824) (UniProt Q97TR1); assay: EMSA; details: EMSA: 20 ul with 2 ul buffer (stock 200 mM Tris, 500 mM Na glutamate, 100 mM MgCl2, 63.6 mM EDTA, 0.5% NP-40, 50% glycerol), 1 ug poly(dI-dC), 20 min room …
T1 sequence: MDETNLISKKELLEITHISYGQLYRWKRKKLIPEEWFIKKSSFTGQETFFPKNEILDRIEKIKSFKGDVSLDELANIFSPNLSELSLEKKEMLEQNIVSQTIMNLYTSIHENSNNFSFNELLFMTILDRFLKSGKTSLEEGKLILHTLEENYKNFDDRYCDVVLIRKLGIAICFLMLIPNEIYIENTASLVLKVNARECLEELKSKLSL

[2] = target: T1, Cap0037 (Clostridium acetobutylicum ATCC 824); assay: DNase I footprinting; details: EMSA: 20 ul with 2 ul buffer (stock 200 mM Tris, 500 mM Na glutamate, 100 mM MgCl2, 63.6 mM EDTA, 0.5% NP-40, 50% glycerol), 1 ug poly(dI-dC), 20 min room …

| Sequence | binding [1] | binding [2] |
| --- | --- | --- |
| GCATAGGTCAAAAATATAACAGCTGTGTATTTAAATGTAAATAGCAACTTTTACAAAATGGTATCTAATATTTTGGCGTAATAATATATATTTAGGAATTATCAGTATATTTAGAAAAATATGAAGGTTTAAAATAAACTGCTAAATGTAAACGTATAATTTACATTTAGCAGTTTTCCTATATTATAAAATTTTATAGGAGCATAAATAGAATTGAGT (double strand) [sol probe (EMSA)] | binds |  |
| CTGCATAATATAAAATGCAGATTTTTTTAAACAAATATTGATAAAGATTATCAAATGATATATAATATTGTTAGTTAATAAATTAACAAAGTTTTATATTTTAAATACAATGTTGCATAAGACAAGGTAATTGAACTAATACTATACTAGTAATTGGAGGGGATAATATATGAAAAAGAATACTAAAATTTCAGTAATCGGAGCAGGATTTGT (double strand) [ldhA promoter] | no binding |  |
| AGAGAATTCCCATTTTACCTTCTATTCTAACTAAAAGGTATATTGATACAGCTATGGGAAAGCCAACATTGCCTATAAGAGACACTATATCGCCTGAATTCATAAAAACACCTCCACATAAGTTTATATAAATCTATTATGCAGAATTTTTAGGAAGTGTACTTTTATTTTCGAAAGCTAGTAGAAAAAATTAATATATGGTGTAAAAATTTACTTAAAAAAACAATATGTGTTATAATGGAT (double strand) [probe 144 (adc promoter, upstream site)] |  | binds |
| ACAGAATTCGCAGAATTTTTAGGAAGTGTACTTTTATTTTCGAAAGCTAGTAGAAAAAATTAATATATGGTGTAAAAATTTACTTAAAAAAACAATATGTGTTATAATGTAAATATAAATAAATAGGACTAGAGGCGATTTATAATGTGAAGATAAAGTATGTTAGAAAAGCTAAACATTATTAAATTTAGGAAGGTGACTTTTATGTTAAAGGATGAAGTAATTAAACAAATTAGCACGCCATTAACTTCGCCGAT (double strand) [probe adcStart (adc transcription start)] |  | binds |
| ACAGAATTCCTCAATTCTATTTATGCTCCTATAAAATTTTATAATATAGGAAAACTGCTAAATGTAAATTATACGTTTACATTTAGCAGTTTATTTTAAACCTTCATATTTTTCTAAATATACTGATAATTCCTAAATATATATTATTACGCCAAAATATTAGATACCATTTTGTAAAAGTTGCTATTTACATTTAAATACACAGCTGTTATATTTTTGACCTATGCTTTTTATTGGAT (double strand) [probe sol (sol promoter, footprint)] |  | binds |
